# No end group written: not given here.
# T1: ADP156
# T1 chain: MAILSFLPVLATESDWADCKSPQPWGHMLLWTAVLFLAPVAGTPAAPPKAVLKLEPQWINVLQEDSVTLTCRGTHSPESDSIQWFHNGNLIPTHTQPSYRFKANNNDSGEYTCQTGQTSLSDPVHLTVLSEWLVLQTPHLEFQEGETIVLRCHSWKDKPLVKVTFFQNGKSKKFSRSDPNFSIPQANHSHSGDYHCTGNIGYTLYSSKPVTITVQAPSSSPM
# T2: ADP103
# T2 chain: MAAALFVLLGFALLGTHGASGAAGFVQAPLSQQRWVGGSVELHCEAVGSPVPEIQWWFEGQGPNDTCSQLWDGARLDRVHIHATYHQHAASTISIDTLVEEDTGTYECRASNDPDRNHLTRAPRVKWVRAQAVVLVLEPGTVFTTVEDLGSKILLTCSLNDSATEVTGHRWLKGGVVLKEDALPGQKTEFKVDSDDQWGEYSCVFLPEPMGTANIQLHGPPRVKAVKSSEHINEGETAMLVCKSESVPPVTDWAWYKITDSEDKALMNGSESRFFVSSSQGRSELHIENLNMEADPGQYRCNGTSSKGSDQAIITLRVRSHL
# T3: ADP353
# T3 chain: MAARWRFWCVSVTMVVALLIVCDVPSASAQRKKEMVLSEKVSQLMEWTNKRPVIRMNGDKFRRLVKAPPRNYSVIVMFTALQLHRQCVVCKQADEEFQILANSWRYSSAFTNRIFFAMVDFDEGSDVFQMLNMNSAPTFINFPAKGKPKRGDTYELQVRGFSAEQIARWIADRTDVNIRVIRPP
# T4: ADP341
# T4 chain: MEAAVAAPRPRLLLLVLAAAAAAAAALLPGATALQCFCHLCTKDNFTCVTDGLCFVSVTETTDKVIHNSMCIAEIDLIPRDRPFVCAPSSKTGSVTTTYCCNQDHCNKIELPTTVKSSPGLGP
# T5: ADP298
# T5 chain: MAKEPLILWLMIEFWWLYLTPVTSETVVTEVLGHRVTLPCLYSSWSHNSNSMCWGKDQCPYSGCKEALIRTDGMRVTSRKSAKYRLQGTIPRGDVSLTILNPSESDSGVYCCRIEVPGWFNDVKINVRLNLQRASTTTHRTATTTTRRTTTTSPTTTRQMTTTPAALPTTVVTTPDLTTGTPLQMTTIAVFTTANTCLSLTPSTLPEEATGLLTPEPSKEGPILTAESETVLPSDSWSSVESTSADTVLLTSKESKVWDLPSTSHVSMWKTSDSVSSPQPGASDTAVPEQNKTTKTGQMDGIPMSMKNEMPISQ
# T6: ADP267
# T6 chain: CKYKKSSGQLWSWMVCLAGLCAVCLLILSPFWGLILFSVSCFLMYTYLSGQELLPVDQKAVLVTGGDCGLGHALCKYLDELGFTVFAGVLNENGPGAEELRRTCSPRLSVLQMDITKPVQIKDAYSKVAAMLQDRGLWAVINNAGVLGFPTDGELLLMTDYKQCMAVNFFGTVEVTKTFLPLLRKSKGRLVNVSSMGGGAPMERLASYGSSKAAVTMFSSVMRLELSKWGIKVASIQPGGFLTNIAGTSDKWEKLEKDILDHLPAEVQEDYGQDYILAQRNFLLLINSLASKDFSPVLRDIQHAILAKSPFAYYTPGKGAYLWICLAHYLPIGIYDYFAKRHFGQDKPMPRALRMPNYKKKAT
# B1: ADP183 (protein)
# chain: AEEHEITHKTYFDITIDDKPLGRIVFGLYGKVAPKTVENFVSICKGTVVDGKMLHYTNSIFHRIIPNFMAQGGDITNFNGAGGLSIYGKKFEDENFKVNHAKRGLLSMANAGKNTNGAQFFILFIPTPWLDGRHVVFGEVVEGLDKLVHIEAVGTDSGEPLKRVLVKESGELPL
# modifications: bait human Fc-tagged dimer; N-glycosylation sequons mutated in Plasmodium baits
# B2: ADP198 (protein)
# chain: ENVDTFKCNYAKKKKNGHHIKRHITNDEEKKKEYSFLMLGKENEEENKENKENNQNVNKDNNDNNNNEKKNEEQNHNNEKKQEEVINNNNNNVENKKEEENHNNDKKTDEQNHVNEKKQEGENNKHKKDDTIPPEKKINKENLLEYGTHDKEGHFIPSYKTLTDEILSTNNAMEKASSFLKIACSHVMKLIEFIPESKLSSQYIKVDNKNIYLKDIAVECQNIYFNLEKFSMTLIVFNSKINKFIYSQEK
# modifications: bait human Fc-tagged dimer; N-glycosylation sequons mutated in Plasmodium baits
# B3: ADP398 (protein)
# chain: SNHIKSVNRCFIPFISEYIYKQKNRKNNIAYDSSNSHYNDKIIPCGNYNKQLKYKINFCRNLYFNNKNEYNRICSRNKLNFHNIQTDNTIYKPKKKYYEVGKVREKIKMYTLFKDDKINTLKCNEEESVTSETINKHDSSVKVKGRRKKNIASNENIMNPNNKAVSSINTNLADSSNNKNDNSLNSKKNDNTLNSKKNDNTLNSKKNDNTLNSKNNNNALNSKNNNNALNSKKSNNAYNDKHIDHIIPEGKNKINNNIDVKHNINNKLNEINEEPYEDTHNKEENSANKNDNDEKRKEENNNIARRYIKNDQMSYNNINTNSNEYDKNAATLDETYIGKTFEGYVYSVNKNAACIKLKNINKYGLLFKNKANLGDDIEDMNDFFEKDQPVHVKILGINTKKNIFYLGNIIKYNENIKLSKGEYSKGLITKVCDSYCFIKVLKNGATGYLHKSKLFCMNDKEKKNNDNQNYDNPNNDNPNYDNQNYDNQNYNNPNYDHPNYDNQNYDNQNYNNPNNDYSTSQLYNSDNLQMDFIYKLQFTKIFNIWDIIDVEILGTPQNDYKSNYILTIPRGSKTFKKILNYLNVLKENEDINNIQYKGDYIYSIDNNKNDNIIDSDINNHHINNKKKKKNLYDIQNNMNHAPFNKFHTEDEYLFNDHVQENVHTFYEKNKKYKITYDKENNHKMNKAYYLKKNKELPFNNKFKKIIKNIYDLPNTISLSMLSKTIKIPLASIKKYFIIHENKEYNSAYKINSEQIKRICQHFKIDCNVEQRDDNVVTKVNGATKDCQEKVFKNVAQDRLKEGEQERVIKVEAKIKNDEMVMQEQKDTKEEKHMDVQFIEEKDINVQHINVQDMDVQDMDVQDINVQDMDVQNINVQDINIQDMDVQNINNAITLNKATSCQTDESRDAPGGDQNEALDEKDSMEKSKEKKKKKGKSRKKNKDTNLALKSDSIQKSKTTLDDKKRNVVVTFIGHINHGKTSLFDYICKTNEQKKEYGLITQNIRAFKATVRNNFAFTLVDTPGHEAFMPMRSRGVKISDLSILVISGDEGIQEQTVECIKLIKEFNIKIIIAITKVDIPNVDVDRIINDLLYHDITTELNGGEIQVVECSIYKEESIDKLLDAIYLESEFLNLQTNPDKKHEQAQGVVLDSYIDKNGIVSINLLQNGVLNINDHFYTGSSYGKVKILKDHLNKNIKSAYPSDPIKIIGYNKNSVPVAGDKFYVVENEALAKEIAEHNKNKMLTMEINNFAYDQTNMNRYKDFIISRENKIGGSSGILGENNLKNDIDGNMARDDNMARDDNMASDDNMARDGNRANNDNIASDDNMANDYDKIKETKMYTNNKAFQKDDFLKIHLNNANENVINMDPSTHIGKNEIKTIYSNYIIKCDKQGSIEVLKNCMLKLQKEDSICKIKNKIIYADIGNVASSDIKYATSFNAAIIAFGVKLSNDIKGSKNSKGSKNHNNYPIIYSNVLYELIENVEKEMEKKLSKKPMGELKGTAQILKVFNIAKLGKVAGCIVKKGTISINSNIRILRNDKVIYMGKIISIKIVKEEKTQVTEADECGIGFDNFLDFEPNDIIEAYEN
# modifications: bait human Fc-tagged dimer; N-glycosylation sequons mutated in Plasmodium baits
# B4: ADP256 (peptide)
# chain: MNEAKEEKTNMRNNHLSRVTIEILPSDEDNDIFDINDALLDELIGINNI
# modifications: also: human Fc-tagged dimer
# B5: ADP397 (protein)
# chain: YLSSENQKKTIATVHNNARTNTLKKNNANNNNANDIFGLSPSEVPNLIDDEEEYEILEGVKNNADLTRSTNIDHPSPSSTMIDLDNIITEISKLKKKKLKKEMNNKLEQQTNQNNNAIHHNNENEINTFTQNIKTNSNELKNQDSSNSLISTNSNTMDELLLYSTNSEDNLDISFGELQLYENSDEDTSDYEYVNEDYSVNHIFSNDAEESFNILEDVENIALSSSNRYQYSPIGPYKKKHTKVFENFKMTRNYDEFLKLYNLKDSSDNQEEYYELLAGEPFKLNSYYYRDVKYENVKKYIFKEIYDNIQNIATENKIIVSKKEELFFYFIKSLLKNNFICLSYEEEENLLSESKLLLEAMISKKIQ
# modifications: bait human Fc-tagged dimer; N-glycosylation sequons mutated in Plasmodium baits
# Experiments:
# Experiment in all cases: AVEXIS screen signal:noise (double-corrected)
# ADP369 = target: ADP369
# ADP156 = target: T1, ADP156
# ADP103 = target: T2, ADP103
# ADP353 = target: T3, ADP353
# ADP376 = target: ADP376
# ADP341 = target: T4, ADP341
# ADP298 = target: T5, ADP298
# ADP267 = target: T6, ADP267
binder,measurement,setting,value
B1,binding score,ADP369,6.98
same,binding score,ADP156,5.67
B2,binding score,ADP103,5.51
same,binding score,ADP353,21.4
B3,binding score,ADP376,10.1
B4,binding score,ADP341,32.7
B5,binding score,ADP298,7.9
same,binding score,ADP267,21.9

# Source: paper PMC11098746 (2024)
